This note sets out measurements from patent US20240262870.

The data set addresses hexa-histidine tagged ComP from A. baylyi ADP1 (ComPADP1).

B1: PglS oligosaccharyltransferase from A. baylyi ADP1 (PglSADP1) (protein)
chain: MNSIFKKIKNYTIVSGVFFLGSAFIIPNTSNLSSTLYKELIAVLGLLILLTVKSFDYKKILIPKNFYWFLFVIFIIFIQLIVGEIYFFQDFFFSISFLVILFLSFLLGFNERLNGDDLIVKKIAWIFIIVVQISFLIAINQKIEIVQNFFLFSSSYNGRSTANLGQPNQFSTLILITLFLLCYLREKNSLNNMVFNILSFCLIFANVMTQSRSAWISVILISLLYLLKFQKKIELRRVIFFNIVFWTLVYCVPLLFNLIFFQKNSYSTFDRLTMGSSRFEIWPQLLKAVFHKPFIGYGWGQTGVAQLETINKSSTKGEWFTYSHNLFLDLMLWNGFFIGLIISILILCFLIELYSSIKNKSDLFLFFCVVAFFVHCLLEYPFAYTYFLIPVGFLCGYISTQNIKNSISYFNLSKRKLTLFLGCCWLGYVAFWVEVLDISKKNEIYARQFLFSNHVKFYNIENYILDGFSKQLDFQYLDYCELKDKYQLLDFKKVAYRYPNASIVYKYYSISAEMKMDQKSANQIIRAYSVIKNQKIIKPKLKFCSIEY
Regarding B1, the “glycosylation of acceptor with K. pneumoniae K1 or K2 capsular polysaccharide, western blot” value was “PglS was able to glycosylate ComP with the K1 and K2 capsular polysaccharides from K. pneumonia”.
